Experiment: soluble on expression in E. coli; label from the status in PepcDB or PDB records

Sequence | soluble on expression in E. coli
MGSDKIHHHHHHMPFVFACLSIKIPRKGTVMAEPLATTPIRYSFGADEHLFAEVSESMSLEAFFKGMAVTRAVERMALDGVLDVCLANASFQVRFDPDRIAPEALLEAVRGAEAQAVAERSLQTRIIEIPVLYNDPWTHETLMRFRDRHQDPTSTDLEYAARINGLADVEAFIAAHSGAPWFVSMVGFVAGLPFMFQMVERERQLQVPKYLRPRTDTPKLTLGHGGCFGCIYSVRGAGGYQMFGVTPAPIYDPQQTLNYLKEHMVFFRPGDIVQFKPIDRRTYDQAVAEVEDGCFDLRIRPVAFSLDAFLADPVGYPKSLQEVLA | not soluble
MANSAGSMAPKVFYISDGTAITAEVFGHAVLSQFPLEFESLTIPFVETLAKAENVKRQINDCFITTGERPLVFHSIVKPEIRDIIYSSEGLDYDFLNTFVAPLEQHLGVSASPVLHRTHGKANQGYEARIDAINFAMDNDDGQTMKHMDQADLILLGVSRCGKTPSSLYLSMQFGIKAANYPFTEDDMDNLKLPEALKRNKKKLFGLTIDPVRLHEIRQSRMENSRYSSLKQCRLEVKEVEMMFKRERIPYIDTTNHSVEEIATKILDVTGLERHMFLEHHHHHH | not soluble
MTSVLDPDRALEDEAKDKFGFVGIAKQLAPPIIEAAKGEGMVIGLEGRWGSGKTSLLNFLRAELQASKKSGIHTITIAPWLNGDTSSLVLSLLEPMAAVLKQKEDELAESYGEGQSATKERVAEVGRLLRAYGPKTARRIASLANVAGYVLPGAQAIGGALAASASAADEIFDVGPTPSELKQELAVKIQELNVGFIVILDDLDRLEPEQAVEVVRLVRSVADFPKVVYLMCYDREVLSEALKTGLKVSDGDLFLQKIVQLTFNIPLPEPFDLRTQFRNEAKAIYFEATGVDLDGAILHDLTYAVDREGMGLSTPREVKLALNSIRFVFSQVKDDVYFPDLCRLHLIKTTNYKLYKWLEIYLSVRSVLVTGDATVSEDEKTKMGEELKMLLPASGPGSVHSIWSLARFIPGVVDTEKVSERVFNAINSSAISEAVRLKRLGSPLHYRFYFALTGPKTVMPDEDFNAILELARNDIDQLESRLAAETMKRRDSGRTWFEHVLDRLDDDCISSLDESQLSGILHALSGMMDIAMKEDGEVRSFALSLDGIANIVAKRCLVRLRELNPEKQANTVRSMAQDGKAINWLVGKFFRSQLFNHGKVGERAERPEQWEISEDLLDDIIEILRKRLSEQDIKNLIPNLPNVSAYLYGWMNLTDDDQAKNWVQEYSESDEGFLDILNHLRGWAMSDKVYYPLSEKTVSSFLDWNEVKTRLDGMQSGEFSDKLEHHHHHH | soluble
MGSDKIHHHHHHMKILITGATGFVGRRLVKSLSEHQLIILTRNINNAKNNLGSHHQYWQTLTDKSDLNDIDAVINLAGEPIVNKRWSNKQKKLICDSRWDITAALTQLISKSTTPPHTFISASAVGYYGRQDQNPVDETSGFHAEFSHDICQKWEDLALQAQSQQTRVCITRIGIVLGKNGGALAKMLPPFKLGLGGPIGSGEQGMSWIHVDDLISLMAYLLSNTDLQGIFNATAPQPVSNAKFAKALGNALNRPAKITTPPLALRLAMGEMSELLTTGQFVLPKRTLAAGFEFKYSDINSALDHITHSAN | not soluble
EKEKKNVFMRTFEAISRNFSEIFAKLSPGGSARLILENPEDPFSGGLEIEAKPAGKDVKRIEAMSGGEKALTALAFVFAIQKFKPAPFYLFDEIDAHLDDANVKRVADLIKESSKESQFIVITLRDVMMANADKIIGVSMRDGVSKVVSLSLEKAMKILEEIRKKQGWEHGN | soluble
SALTCEVCVLTVPVVSNSTPGSLYVVATPIGNLDDMSVRALKVLREVALIAAEDTRHSARLMQHFGISTPLAACHEHNERDEGSRFITRLLAGDDVALISDAGTPLISDPGYHLVRQARAVGVPVVP | not soluble
MGSDKIHHHHHHMNVSIRLPRFEFDDKILEQGAEISRRLNQLRMEKFPPNATKTLRTFSMAEVAHYLGVSQNNLKRLHLEGKGPLPDQSPSGRRSYTATQMLELRQFLDQHGRTEVKKYVPHRKLGDKLQVVAVVNFKGGSGKTTTAAHLAQHLALTGHRVLAIDLDPQASLSALHGFQPELDRNLSLYEAIRYDDERRSIADVIIPTNFPGLDIIPANLELQEYEYDTPLAMQDKTSSAGRQFFTRMAKALSEVDDRYDVVVVDCPPQLGYLTLTAMSAATSVLITVHPQMLDLMSMSQFLLMLGGILKTIKAAGAAIELDWFRYLITRYEPTDIPQAQMVGFMQSMLAGQILENPMLKSTAISDAGLTKQTLYEVEKSAFTRSTYDRALESLDAVNAEIVTLIHRAWGRS | not soluble
GMSGDSEVGTEAGLTLGGDGILRLTWPRGAAITAADAERAMLRVNQLCGDDRHPMLVDMATTADVSRGARAVFGRPCQASRIALLGSSPVDRVLANFFLGINAVPCPTKFFTSERDALTWLALT | soluble
MDTPRPQLLDFQFHQNNDSFTLHFQQRLILTHNKDNPCLWIGSGIADIDMFRGNFSIKDKLQEKIALTDAIVSQSPDGWLIHFSRGSDISATLNISADDQGRLLLELQNDNLNHNRIWLRLAAQPEDHIYGCGEQFSYFDLRGKPFPLWTSEQGVGRNKQTYVTWQADCKENAGGDYYWTFFPQPTFVSTQKYYCHVDNSCYMNFDFSAPEYHELALWEDKATLRFECADTYISLLEKLTALLGRQPELPDWIYDGVTLGIQGGTEVCQKKLDTMRNAGVKVNGIWAQDWSGIRITSFGKRVMWNWKWNSENYPQLDSRIKQWYQEGVQFLAYINPYVASDKDLCEEAAQHGYLAKDASGGDYLVEFGEFYGGVVDLTNPEAYAWFKEVIKKNMIELGCGGWMADFGEYLPTDTYLHNGVSAEIMHNAWPALWAKCNYEALEETGKLGEILFFMRAGSTGSQKYSTMMWAGDQNVDWSLDDGLASVVPAALSLAMTGHGLHHSDIGGYTTLFEMKRSKELLLRWCDFSAFTPMMRTHEGNRPGDNWQFDGDAETIAHFARMTTVFTTLKPYLKEAVALNAKSGLPVMRPLFLHYEDDAHTYSLKYQYLLGRDILVAPVHEEGRSDWTLYLPEDNWVHAWTGEAFRGGEVTVNAPIGKPPVFYRADSEWAALFASLNSI | not soluble
SDLCQLFVEQLFGFQDPASLHVLINEIPCARKNLISLRRFSLLIAEPQWFTGSIYDNLVLNHRNVPNKIIIEQLKNVGLADKIIQLPEGLRTILYEWQDVFTLVELTKLMLVRALLLQPELIVIDRAFDILNHQEVNEMMELVLSLKNTLLAIVSQRSDFNYLNNRLVISS | not soluble
MAELSNCSKCGRLFVKLSTRDVCESCYQEEERQFERVYAFLRKRENRTATMAQVVEATGVEEKLIIKWIRAGRLQLVHFPNLGYPCDSCGAMIREGRLCAKCLGQLQADLRRAEGKKEKEARSRHATYYTQDHKER | not soluble
MAHHHHHHMELLNQENDGFLEDMSDSINKQIKELENVPSKDIIRNIWFKVHCNERNKFHSLIYSIRKIHDKYFSDTNKNEELGKKVWNKCCAIITEELLKLDSIQNSQFHNLMQQETVTLQEFEDFVKFSVNGYKNTKKETKKICIKKLKKALNQRL | soluble
MIKVKEDKNEQVKKRWGDKPYYSLNYFLREKFQDKVFKISLDAGFSCPNRDGTISRGGCMFCSERGSGDFAGNRKFSISTQFEDIKDMMKNKWKNGKYIAYFQAYTNTYAPIKVLREKYSEAISKDGVVGLAIATRPDCLSEEVLDLIQEFSKRIYVWVELGLQTANDKVAKVINRGYDTIVFDDAVKKLRERKIDVVVHTIFGLPGEKPKDMLSTIDYVAHKEVQGIKIHLLHLMRGTPLVELYNNGQLTFMSEEEYVETVCRAITMLPQNIV | not soluble
MKPPPRRRAAPARYLGEVTGPATWSAREKRQLVRLLQARQGQPEPDATELARELRGRSEAEIRVFLQQLKGRVAREAIQKVHPGGLQGPRRREAQPPAPIEVWTDLAEKITGPPEEAVAVAFSQVLTIAATEPVTLLHSKPPKPTQARGKPLLLSAPGGQEDPAPEIPSSAPAAPSSAPRTPDPAPEKPSESSAGPSTEEDFAVDFEKIYKYLSSVSRSGRSPELSAAESAVVLDLLMSLPEELPLLPCTALVEHMTETYLRLTAPQPIPAGGSLGPAAEGVGAGSKAPEETPPATEKAEHSELKSPWQAAGICPLNPFLVPLELLGRAATPAR | soluble
MDKDLQSIQEVRDLLAAASKAFEEYSQFSQSQIDEIVKEICEEAQKHEVELAKLANEETGFGRWEDKVLKNRLASVGVYETIKDLKTRGIINDDKEKRITEIGVPMGIIAALIPSTNPTSTTIYKIMISLKAGNAVIVSPHPNAKDSILKTAEYLIRAAERKGAPKGLIGVIKTPTLQATQELMKHKKTSLILATGGEAMVKAAYSSGTPAIGVGPGNGPSFIERSADIRKAVKRIIDSKTFDNGVICASEQSIVTEEVIKHQVADELKRQGAYFLNKDEREKVGKILMRANNTMNPKIVGKTALYVAAMAGITVPVTTKVLISEETEVSHFNPYSREKLCPVLGFYTEETWEKACEKCIEILQNEGIGHTMSMHTNNENIIREFSLKKPVSRLLVNTPAALGGVGATTNLIPAFTLGCGTVGGSATSDNIGPLNLINIRRVAYGTKELEELKNEGVCTCACELNTDTSNSKVSENDIESIIRQVLDGIYKK | not soluble
MGITDGVVVDLGGGTTGISILEKGKVIFVADEPTGGTHMTLVLAGSYGIDFETAEDIKTDKKKEKEVFVQITPVLQKMAAIVKKYIKDYKVKDVFLVGGACSFDGSESIFERELGLNIYKPYMPVLEHHHHHH | not soluble
MGNFHATTIFAVHHNGECAMAGDGQVTMGNAVVMKHTARKVRKLFQGKVLAGFAGSVADAFTLFEMFEGKLEEYNGNLQRAAVEMAKQWRGDKMLRQLEAMLIVMDKTTMLLVSGTGEVIEPDDGILAIGSGGNYALSAGRALKQYASEHLTAKQIAKASLEIAGDICVYTNHNIIVEEL | not soluble
RKPEEEPQPIDDSSMQFLLAAKDAVSGGIKQNPDFSAQDLAEKMCMSPSQLNRKLTSVVGCSTIGYIQQIKIKLACKLLADESKNISDISIEAGFSDPAYFSRTFKRYMNCSPSQYRQKLLAMPGSDKETV | not soluble

— the DeepSol protein solubility set
